Laboratory results published in article PMC9355967.

Tests used:
[1] = molecular target: FLAG-tagged full-length AFDN (mouse) (UniProt Q9QZQ1); assay: co-IP; HEK 293T cells co-transfected; anti-FLAG IP on Protein G sepharose, Western blot with anti-GFP or antibodies to the endogenous protein; TX100 buffer (20 mM Tris pH 7.5, 150 mM NaCl, 1% NP-40, 1% Triton X-100, 5 mM MgCl2 for GTPases); also after FastAP phosphatase treatment of lysates; with or without co-expressed GTPases (densitometry in Fig. 4g)
[2] = molecular target: purified AFDN FHA domain Δex9 (mouse); assay: ITC; MicroCal ITC200, 25 °C, 20 mM Tris-HCl pH 7.5, 150 mM NaCl, 1 mM DTT

Chain of FLAG-tagged full-length AFDN (mouse) (Q9QZQ1 whole entry, the tested form may be a part): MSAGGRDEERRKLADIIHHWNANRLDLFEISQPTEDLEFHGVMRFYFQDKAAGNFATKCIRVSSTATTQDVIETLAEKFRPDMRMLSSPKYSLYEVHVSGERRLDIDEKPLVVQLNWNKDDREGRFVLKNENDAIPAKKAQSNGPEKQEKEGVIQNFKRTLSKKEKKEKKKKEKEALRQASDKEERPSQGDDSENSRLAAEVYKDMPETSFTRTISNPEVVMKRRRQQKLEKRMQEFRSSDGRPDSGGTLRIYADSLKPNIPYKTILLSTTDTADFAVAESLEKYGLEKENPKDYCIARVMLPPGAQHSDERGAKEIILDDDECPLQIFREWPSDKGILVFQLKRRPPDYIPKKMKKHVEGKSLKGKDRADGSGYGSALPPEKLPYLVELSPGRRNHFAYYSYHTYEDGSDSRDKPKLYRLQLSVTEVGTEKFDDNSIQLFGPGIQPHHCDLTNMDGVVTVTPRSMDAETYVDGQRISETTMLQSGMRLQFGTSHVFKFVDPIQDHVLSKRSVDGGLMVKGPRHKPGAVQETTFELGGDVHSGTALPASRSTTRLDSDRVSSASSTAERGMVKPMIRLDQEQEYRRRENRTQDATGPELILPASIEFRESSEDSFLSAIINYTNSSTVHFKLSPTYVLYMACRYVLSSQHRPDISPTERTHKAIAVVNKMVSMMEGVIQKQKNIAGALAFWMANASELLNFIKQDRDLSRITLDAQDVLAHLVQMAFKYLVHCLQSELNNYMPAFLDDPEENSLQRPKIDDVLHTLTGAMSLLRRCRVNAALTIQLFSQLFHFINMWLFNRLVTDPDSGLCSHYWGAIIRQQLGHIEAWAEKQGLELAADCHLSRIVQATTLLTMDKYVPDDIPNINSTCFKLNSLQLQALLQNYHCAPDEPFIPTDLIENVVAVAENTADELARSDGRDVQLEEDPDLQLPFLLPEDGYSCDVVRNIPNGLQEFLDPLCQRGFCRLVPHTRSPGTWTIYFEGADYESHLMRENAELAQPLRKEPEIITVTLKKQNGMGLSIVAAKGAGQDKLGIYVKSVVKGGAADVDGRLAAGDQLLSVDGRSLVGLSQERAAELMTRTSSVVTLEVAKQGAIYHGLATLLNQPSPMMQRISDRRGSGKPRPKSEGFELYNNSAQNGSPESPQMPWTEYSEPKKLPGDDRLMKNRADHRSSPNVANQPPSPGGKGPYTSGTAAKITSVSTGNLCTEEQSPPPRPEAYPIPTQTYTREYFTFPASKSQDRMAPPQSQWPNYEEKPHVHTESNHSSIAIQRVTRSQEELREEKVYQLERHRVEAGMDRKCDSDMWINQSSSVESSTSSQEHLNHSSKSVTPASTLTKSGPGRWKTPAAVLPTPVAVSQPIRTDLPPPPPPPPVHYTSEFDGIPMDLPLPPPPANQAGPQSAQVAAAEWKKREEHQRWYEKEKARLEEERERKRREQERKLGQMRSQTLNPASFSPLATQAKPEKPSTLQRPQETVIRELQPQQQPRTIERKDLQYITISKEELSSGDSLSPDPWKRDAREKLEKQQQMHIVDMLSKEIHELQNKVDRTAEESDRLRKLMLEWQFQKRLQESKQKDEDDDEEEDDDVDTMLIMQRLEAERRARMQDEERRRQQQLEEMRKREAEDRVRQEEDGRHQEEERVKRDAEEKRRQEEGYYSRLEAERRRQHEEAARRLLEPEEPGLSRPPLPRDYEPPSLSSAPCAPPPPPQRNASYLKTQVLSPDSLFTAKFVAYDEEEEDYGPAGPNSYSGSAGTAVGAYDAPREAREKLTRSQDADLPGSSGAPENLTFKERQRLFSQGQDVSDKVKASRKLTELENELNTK
Chain of purified SCRIB PDZ1 domain (718-820) (Q14160 718-820): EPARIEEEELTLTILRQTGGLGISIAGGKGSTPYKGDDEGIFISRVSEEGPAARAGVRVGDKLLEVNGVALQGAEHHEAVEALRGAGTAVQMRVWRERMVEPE

Substance	fold increase of SCRIB co-precipitated with AFDN, KRAS-G12V co-expressed, against wild-type KRAS [1]	fold increase of SCRIB co-precipitated with AFDN, RAP1B-G12V co-expressed, against wild-type KRAS [1]	fold increase of SCRIB co-precipitated with AFDN, RAP2C-G12V co-expressed, against wild-type KRAS [1]	Kd [2]
EGFP-tagged full-length SCRIB (from UniProt Q14160 1-1655) (natural protein)	8 fold	1.7 fold	2.6 fold	–
purified SCRIB PDZ1 domain (718-820) (from UniProt Q14160 718-820) (domain or fragment)	–	–	–	22.9 µM
